Among the data in article PMC11084668, “EGCG Disrupts the LIN28B/Let-7 Interaction and Reduces Neuroblastoma Aggressiveness” are binding result and Kd values, retold here.

Data set [1] concerns the target T1, rLIN28B (LIN28B-Myc-His) (Homo sapiens, UniProt Q6ZN17 1-250).
T1 sequence: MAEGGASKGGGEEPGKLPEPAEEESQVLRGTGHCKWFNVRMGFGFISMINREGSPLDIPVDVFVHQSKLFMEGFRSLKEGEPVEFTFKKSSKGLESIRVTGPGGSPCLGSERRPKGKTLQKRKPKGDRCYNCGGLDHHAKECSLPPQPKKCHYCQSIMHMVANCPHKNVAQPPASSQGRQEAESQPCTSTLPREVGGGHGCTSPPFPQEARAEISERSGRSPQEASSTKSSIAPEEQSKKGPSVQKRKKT
The data set can be described thus: AlphaScreen; REMSA: 20 mM HEPES pH 7.5, 50 mM KCl, 0.5 ug BSA, 0.25% glycerol, room temperature, 1 h; AlphaScreen: dialysis buffer (Table S3, partly shown: 0.02% Tween, 0.1% BSA, 15% glycerol, pH 7.5?), room temperature, 90 min. Particulars: protein: recombinant; tags: C-terminal Myc-His; label: 5'-biotin. (In general: Alpha assays give light when donor and acceptor beads are brought close together.)

In data set [2] the target is T1, rLIN28B (LIN28B-Myc-His). The data set can be described thus: AlphaScreen saturation binding; apparent Kd; n = 3, SD; REMSA: 20 mM HEPES pH 7.5, 50 mM KCl, 0.5 ug BSA, 0.25% glycerol, room temperature, 1 h; AlphaScreen: dialysis buffer (Table S3, partly shown: 0.02% Tween, 0.1% BSA, 15% glycerol, pH 7.5?), room temperature, 90 min. Particulars: protein: recombinant; tags: C-terminal Myc-His; label: 5'-biotin.

In the case of GGCAUGAUACCACCCGGUACGGGC (structured_RNA) [Bi-pre-let-7g-mut], in the data set with rLIN28B (LIN28B-Myc-His) [1], the binding result is “no binding”. As to GCUAUGAUACCACCCGGUACAGGAGC (structured_RNA) [Bi-pre-let-7g], the Kd in the data set with rLIN28B (LIN28B-Myc-His) [2] is 34.7 ± 3.6 nM.
